Assay results published in publication PMC5884693 (Cell, 2018).

Target: the molecule itself
Assay: negative stain EM

B1: Drosophila Arc homologue dArc1 (natural protein, UniProt Q7K1U0 1-254, looked up)
chain: MAQLTQMTNEQLRELIEAVRAAAVGAAGSAAAAGGADASRGKGNFSACTHSFGGTRDHDVVEEFIGNIETYKDVEGISDENALKGISLLFYGMASTWWQGVRKEATTWKEAIALIREHFSPTKPAYQIYMEFFQNKQDDHDPIDTFVIQKRALLAQLPSGRHDEETELDLLFGLLNIKYRKHISRHSVHTFKDLLEQGRIIEHNNQEDEEQLATAKNTRGSKRTTRCTYCSFRGHTFDNCRKRQKDRQEEQHEE
- binding result: binds
